Measurements reported in US20220062148.

Columns and labels:
[1] = target: T1, Peptide sequence QAVRPNGM
T1 chain: QAVRPNGM

[2] = target: T2, Peptide sequence XIARQPWN
T2 chain: ARQPWN

[3] = target: T3, Peptide sequence FDNRVGKW
T3 chain: FDNRVGKW

[4] = target: T4, Peptide sequence WGNRSPLE
T4 chain: WGNRSPLE

[5] = target: T5, Peptide sequence QGKKAPXX
T5 chain: QGKKAP

B1: Atlantic cod trypsin I (protein)
chain: IVGGYECTKHSQAHQVSLNSGYHFCGGSLVSKDWVVSAAHCYKSVLRVRLGEHHIRVNEGTEQYISSSSVIRHPNYSSYNINNDIMLIKLTKPATLNQYVHAVALPTECAADATMCTVSGWGNTMSSVADGDKLQCLSLPILSHADCANSYPGMITQSMFCAGYLEGGKDSCQGDSGGPVVCNGVLQGVVSWGYGCAERDHPGVYAKVCVLSGWVRDTMANY
[1]
  Ion Precursor Intensities, 5′ incubation (multiplex substrate profiling, cleavage): 0
  Ion Precursor Intensities, 15′ incubation (multiplex substrate profiling, cleavage): 0
  Ion Precursor Intensities, 60′ incubation (multiplex substrate profiling, cleavage): 0
[2]
  Ion Precursor Intensities, 5′ incubation (multiplex substrate profiling, cleavage): 0
  Ion Precursor Intensities, 15′ incubation (multiplex substrate profiling, cleavage): 0
  Ion Precursor Intensities, 60′ incubation (multiplex substrate profiling, cleavage): 189000
[3]
  Ion Precursor Intensities, 5′ incubation (multiplex substrate profiling, cleavage): 0
  Ion Precursor Intensities, 15′ incubation (multiplex substrate profiling, cleavage): 0
  Ion Precursor Intensities, 60′ incubation (multiplex substrate profiling, cleavage): 165000
[4]
  Ion Precursor Intensities, 5′ incubation (multiplex substrate profiling, cleavage): 0
  Ion Precursor Intensities, 15′ incubation (multiplex substrate profiling, cleavage): 0
  Ion Precursor Intensities, 60′ incubation (multiplex substrate profiling, cleavage): 0
[5]
  Ion Precursor Intensities, 5′ incubation (multiplex substrate profiling, cleavage): 0
  Ion Precursor Intensities, 15′ incubation (multiplex substrate profiling, cleavage): 0
  Ion Precursor Intensities, 60′ incubation (multiplex substrate profiling, cleavage): 0
